Data taken from the supplement of paper PMC10724198.
± gives the standard deviation of the averaged measurements.

System: Saccharomyces cerevisiae
Experiment: protein stability index of tFT-peptide fusion (C-terminal peptide) (PSI (0-1 scale)); higher = more stable (slower turnover)
Conditions: temperature: 30 C
Description: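 MPS profiling in S. cerevisiae of the yeast C-terminome library: the last 12 aa of each annotated ORF are fused to the C-terminus of a sfGFP-mCherry timer, after a GGGS linker. Cells are FACS-sorted into 8 mCherry/sfGFP bins and deep-sequenced. PSI runs from 0 (unstable) to 1 (stable); wild type and das1Δ backgrounds, two technical replicates each.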

[1] = genetic background: das1 deletion

Sequence	protein stability index [1]	protein stability index (genetic background: wild type)
IKARNMKIDRTQ [COG4 C-terminal 12 aa]	0.681 ± 0.018	0.695 ± 0.041
TFEELWNGVEGI [ARH1 C-terminal 12 aa]	0.722 ± 0.016	0.682 ± 0.038
ETMGARLKIDGK [YJR149W C-terminal 12 aa]	0.7079 ± 0.0065	0.689 ± 0.011
LMFSKLGRYLFN [NSG1 C-terminal 12 aa]	0.6857 ± 0.0016	0.655 ± 0.021
DTSSTVEKKQKT [CCL1 C-terminal 12 aa]	0.686 ± 0.032	0.692 ± 0.038
PLITPSGFRSSL [YNR025C C-terminal 12 aa]	0.707 ± 0.0084	0.715 ± 0.025
EVSQYAAFFQDD [CTM1 C-terminal 12 aa]	0.719 ± 0.02	0.712 ± 0.028
FPFELRREQTEG [PET130 C-terminal 12 aa]	0.6976 ± 0.0057	0.755 ± 0.061
ISGGTFGFRSEI [HBT1 C-terminal 12 aa]	0.696 ± 0.02	0.7165 ± 0.0021
STTADSTTNSAN [YLR146W-A C-terminal 12 aa]	0.696 ± 0.014	0.664 ± 0.011
YEAKLSKRILRD [SCM3 C-terminal 12 aa]	0.7215 ± 0.0071	0.723 ± 0.0073
TEDQFKENGVKK [ICL1 C-terminal 12 aa]	0.703 ± 0.033	0.716 ± 0.065
ASDEPSRKKNRR [SSN3 C-terminal 12 aa]	0.743 ± 0.044	0.704 ± 0.056
ALFKAAGGKIKK [YLF2 C-terminal 12 aa]	0.6703 ± 0.0023	0.66 ± 0.011
TALLENDANLIS [ERV15 C-terminal 12 aa]	0.703 ± 0.019	0.703 ± 0.021
LLLKVEKKGSKK [HTZ1 C-terminal 12 aa]	0.706 ± 0.034	0.716 ± 0.041
KLRITSQENKTE [BCK1 C-terminal 12 aa]	0.68 ± 0.022	0.766 ± 0.036
HVKDHQPGKPFI [YDR433W C-terminal 12 aa]	0.689 ± 0.023	0.708 ± 0.063
TCLTGEVIFPPR [NPC2 C-terminal 12 aa]	0.7115 ± 0.0058	0.72 ± 0.017
NEEMAEISNPFR [FEN2 C-terminal 12 aa]	0.699 ± 0.019	0.711 ± 0.026
KDVIVDHHSDLN [SAP4 C-terminal 12 aa]	0.706 ± 0.048	0.701 ± 0.052

Sequence	protein stability index [1]	protein stability index (genetic background: wild type)
APNSNSSSGSVS [YFL013W-A C-terminal 12 aa]	0.673 ± 0.026	0.66 ± 0.034
LKFLEEKFPHDK [AIM17 C-terminal 12 aa]	0.708 ± 0.02	0.691 ± 0.03
KNSDSTEKNATI [DAT1 C-terminal 12 aa]	0.702 ± 0.026	0.736 ± 0.034
VPGNPGVVFQNI [CDC60 C-terminal 12 aa]	0.708 ± 0.018	0.75 ± 0.082
SATFTSDHIGHI [RIM21 C-terminal 12 aa]	0.7167 ± 0.0052	0.685 ± 0.042
MIDELDYNINFA [UGA3 C-terminal 12 aa]	0.7 ± 0.013	0.791 ± 0.076
VFLVISQHSLHS [YDR545C-A C-terminal 12 aa]	0.6541 ± 0.0036	0.652 ± 0.011
HSITEGSYIYIK [YOR062C C-terminal 12 aa]	0.687 ± 0.062	0.676 ± 0.05
IPLTEFDLSDSK [YMR253C C-terminal 12 aa]	0.701 ± 0.0095	0.73422 ± 0.00045
ADESKKEITTGR [MPC2 C-terminal 12 aa]	0.714 ± 0.022	0.653 ± 0.018
KKKDASQEESLI [VMA2 C-terminal 12 aa]	0.6922 ± 0.0019	0.7066 ± 0.0041
NAEKAAGQKKED [YLL053C C-terminal 12 aa]	0.695 ± 0.034	0.658 ± 0.018
QTILKNKKKISQ [GYP6 C-terminal 12 aa]	0.701 ± 0.049	0.6842 ± 0.0023
KISLLSHAQCYK [YIR016W C-terminal 12 aa]	0.668 ± 0.024	0.6506 ± 0.0051
FDVELVDVKSAA [FPR2 C-terminal 12 aa]	0.6795 ± 0.0018	0.687 ± 0.037
EVLERSVLLRKR [MDJ2 C-terminal 12 aa]	0.699 ± 0.017	0.688 ± 0.01
LYQCRMPCLYSI [YGL193C C-terminal 12 aa]	0.659 ± 0.026	0.586 ± 0.014
FTIYEKVLVMLA [CTP1 C-terminal 12 aa]	0.286 ± 0.017	0.20202 ± 3.5e-06
ENYYPSSLTLDI [JLP1 C-terminal 12 aa]	0.72281 ± 0.00028	0.696 ± 0.062
PPFDFRLLFLLV [YGL165C C-terminal 12 aa]	0.542 ± 0.033	0.269 ± 0.0091
